Experimental data: patent US20190134153A1, “IMMUNOMODULATORY EFFECT OF INHALED KINASE INHIBITOR PEPTIDES IN LUNG” (MOERAE MATRIX, INC., priority 2017, published 2019)

How the values were obtained:
Experiment in all cases: Kinase Profiling Assay
Type in all cases: biochemical
Conditions in all cases: 100 μM
[1] = biological target: CHK2(I157T)(h) (Homo sapiens, UniProt O96017, I157T)
[2] = biological target: IR(h) (Homo sapiens, UniProt P06213)
[3] = biological target: cKit(D816H)(h) (Homo sapiens, UniProt P10721, D816H)
[4] = biological target: T1, PKCζ(h) (Homo sapiens, UniProt Q05513)
T1 sequence (Q05513 1-592): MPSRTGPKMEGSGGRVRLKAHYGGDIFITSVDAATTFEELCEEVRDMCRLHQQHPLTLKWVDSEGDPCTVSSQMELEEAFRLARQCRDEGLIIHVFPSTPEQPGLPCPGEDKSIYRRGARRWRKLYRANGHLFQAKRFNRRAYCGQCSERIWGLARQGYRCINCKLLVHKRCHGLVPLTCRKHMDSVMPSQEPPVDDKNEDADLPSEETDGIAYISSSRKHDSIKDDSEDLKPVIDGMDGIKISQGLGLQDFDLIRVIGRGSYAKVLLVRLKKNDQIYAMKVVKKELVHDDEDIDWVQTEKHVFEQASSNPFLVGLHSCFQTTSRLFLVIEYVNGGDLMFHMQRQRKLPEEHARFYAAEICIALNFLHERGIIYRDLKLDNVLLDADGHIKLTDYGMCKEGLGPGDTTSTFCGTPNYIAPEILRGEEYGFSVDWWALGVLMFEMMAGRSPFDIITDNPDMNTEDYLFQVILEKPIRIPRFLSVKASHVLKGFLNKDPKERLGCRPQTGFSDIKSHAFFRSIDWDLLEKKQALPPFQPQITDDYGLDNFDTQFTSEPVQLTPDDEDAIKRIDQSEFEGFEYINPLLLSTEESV

[5] = biological target: T2, GRK7(h) (Homo sapiens, UniProt Q8WTQ7)
T2 sequence (Q8WTQ7 1-553): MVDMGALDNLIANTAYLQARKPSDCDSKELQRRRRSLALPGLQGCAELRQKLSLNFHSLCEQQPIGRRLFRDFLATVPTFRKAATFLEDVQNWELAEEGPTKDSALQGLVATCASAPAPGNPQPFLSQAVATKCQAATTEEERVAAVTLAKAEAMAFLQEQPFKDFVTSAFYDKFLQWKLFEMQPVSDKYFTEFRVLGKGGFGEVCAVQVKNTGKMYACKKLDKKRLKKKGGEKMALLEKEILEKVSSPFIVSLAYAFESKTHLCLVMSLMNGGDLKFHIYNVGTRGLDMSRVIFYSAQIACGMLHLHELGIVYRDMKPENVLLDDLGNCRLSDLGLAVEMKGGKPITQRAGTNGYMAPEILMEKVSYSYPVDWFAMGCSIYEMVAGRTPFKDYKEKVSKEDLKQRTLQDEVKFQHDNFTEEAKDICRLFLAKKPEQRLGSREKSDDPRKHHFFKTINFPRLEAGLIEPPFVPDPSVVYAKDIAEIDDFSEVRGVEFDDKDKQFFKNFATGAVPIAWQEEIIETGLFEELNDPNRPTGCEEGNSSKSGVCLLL

[6] = biological target: CDK2/cyclinA(h) (Homo sapiens, UniProt P24941)
[7] = biological target: Plk3(h) (Homo sapiens, UniProt Q9H4B4)
[8] = biological target: PASK(h) (Homo sapiens, UniProt Q96RG2)
[9] = biological target: MAPK2(h) (Homo sapiens, UniProt P28482)
[10] = biological target: T3, GCK(h) (Homo sapiens, UniProt Q12851)
T3 sequence (Q12851 1-820): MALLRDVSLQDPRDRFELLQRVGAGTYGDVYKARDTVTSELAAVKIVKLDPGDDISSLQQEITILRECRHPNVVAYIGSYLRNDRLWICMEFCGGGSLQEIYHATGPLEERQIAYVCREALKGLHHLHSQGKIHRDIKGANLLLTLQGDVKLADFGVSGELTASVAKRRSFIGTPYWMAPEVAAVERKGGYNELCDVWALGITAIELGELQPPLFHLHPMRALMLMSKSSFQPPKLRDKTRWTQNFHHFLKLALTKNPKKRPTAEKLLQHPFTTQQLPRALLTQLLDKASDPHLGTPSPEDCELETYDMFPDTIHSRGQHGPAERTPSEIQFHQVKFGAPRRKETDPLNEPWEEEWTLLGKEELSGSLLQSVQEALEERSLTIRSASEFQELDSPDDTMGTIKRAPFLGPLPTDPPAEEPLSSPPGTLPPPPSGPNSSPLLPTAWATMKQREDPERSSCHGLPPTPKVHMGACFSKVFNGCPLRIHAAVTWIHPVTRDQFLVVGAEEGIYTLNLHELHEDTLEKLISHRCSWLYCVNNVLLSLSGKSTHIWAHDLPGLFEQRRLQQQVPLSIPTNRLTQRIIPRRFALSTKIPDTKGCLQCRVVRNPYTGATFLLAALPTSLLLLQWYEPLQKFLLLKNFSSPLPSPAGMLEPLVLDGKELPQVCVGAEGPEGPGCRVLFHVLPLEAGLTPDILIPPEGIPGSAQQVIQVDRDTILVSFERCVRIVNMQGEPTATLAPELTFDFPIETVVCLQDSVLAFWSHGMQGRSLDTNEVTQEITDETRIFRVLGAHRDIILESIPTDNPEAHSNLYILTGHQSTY

Sequence of Plk3(h) (Q9H4B4 whole entry): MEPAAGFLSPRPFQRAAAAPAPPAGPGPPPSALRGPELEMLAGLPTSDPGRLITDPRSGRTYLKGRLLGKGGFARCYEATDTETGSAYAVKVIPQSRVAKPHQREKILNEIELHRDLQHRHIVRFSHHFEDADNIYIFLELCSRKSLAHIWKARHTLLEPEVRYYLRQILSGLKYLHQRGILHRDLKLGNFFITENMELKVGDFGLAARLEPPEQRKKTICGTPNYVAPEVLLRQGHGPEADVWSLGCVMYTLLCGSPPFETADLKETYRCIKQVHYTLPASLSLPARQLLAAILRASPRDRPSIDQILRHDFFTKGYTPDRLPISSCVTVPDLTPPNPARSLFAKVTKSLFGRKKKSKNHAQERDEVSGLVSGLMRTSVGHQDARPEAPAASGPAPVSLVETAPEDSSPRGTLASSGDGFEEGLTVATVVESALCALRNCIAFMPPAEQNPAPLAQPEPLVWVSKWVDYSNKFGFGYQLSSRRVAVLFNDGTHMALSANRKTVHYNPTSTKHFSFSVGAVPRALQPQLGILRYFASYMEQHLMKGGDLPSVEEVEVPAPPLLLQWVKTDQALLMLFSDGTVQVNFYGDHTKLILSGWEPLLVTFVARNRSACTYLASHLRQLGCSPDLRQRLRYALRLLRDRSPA
Sequence of PASK(h) (Q96RG2 whole entry): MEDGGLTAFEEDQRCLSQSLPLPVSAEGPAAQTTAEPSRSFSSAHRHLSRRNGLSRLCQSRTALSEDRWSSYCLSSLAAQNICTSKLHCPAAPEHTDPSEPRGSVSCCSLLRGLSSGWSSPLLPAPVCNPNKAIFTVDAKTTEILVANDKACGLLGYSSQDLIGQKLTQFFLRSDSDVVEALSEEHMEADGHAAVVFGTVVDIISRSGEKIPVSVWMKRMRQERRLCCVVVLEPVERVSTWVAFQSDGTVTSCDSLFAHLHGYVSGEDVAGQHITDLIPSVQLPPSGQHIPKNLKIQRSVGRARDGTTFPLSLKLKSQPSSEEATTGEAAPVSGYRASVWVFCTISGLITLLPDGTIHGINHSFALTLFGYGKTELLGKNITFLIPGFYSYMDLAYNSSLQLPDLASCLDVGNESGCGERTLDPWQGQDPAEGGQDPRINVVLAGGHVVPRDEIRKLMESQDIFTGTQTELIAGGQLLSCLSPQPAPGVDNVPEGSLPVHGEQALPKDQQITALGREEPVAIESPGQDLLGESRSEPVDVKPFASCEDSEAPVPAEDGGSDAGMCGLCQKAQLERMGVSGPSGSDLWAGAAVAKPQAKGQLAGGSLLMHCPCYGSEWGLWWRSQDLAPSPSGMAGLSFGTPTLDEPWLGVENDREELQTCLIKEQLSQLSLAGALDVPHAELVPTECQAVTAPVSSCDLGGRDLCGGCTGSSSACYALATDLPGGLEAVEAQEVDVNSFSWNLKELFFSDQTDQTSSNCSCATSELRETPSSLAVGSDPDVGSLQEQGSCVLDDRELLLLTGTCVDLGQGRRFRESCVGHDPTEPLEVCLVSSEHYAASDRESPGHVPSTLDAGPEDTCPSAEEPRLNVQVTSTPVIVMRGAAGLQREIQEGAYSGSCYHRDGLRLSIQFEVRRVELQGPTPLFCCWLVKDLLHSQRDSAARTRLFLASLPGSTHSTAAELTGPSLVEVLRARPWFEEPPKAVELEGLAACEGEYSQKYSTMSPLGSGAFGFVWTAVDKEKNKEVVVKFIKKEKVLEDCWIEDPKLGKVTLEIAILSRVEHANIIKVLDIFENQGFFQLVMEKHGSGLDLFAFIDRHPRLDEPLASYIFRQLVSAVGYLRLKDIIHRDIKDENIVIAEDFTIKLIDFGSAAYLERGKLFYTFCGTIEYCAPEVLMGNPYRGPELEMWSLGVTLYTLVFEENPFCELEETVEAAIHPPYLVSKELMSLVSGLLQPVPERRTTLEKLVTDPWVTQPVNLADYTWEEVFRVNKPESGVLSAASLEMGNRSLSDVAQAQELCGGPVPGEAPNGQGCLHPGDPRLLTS
Sequence of MAPK2(h) (P28482 whole entry): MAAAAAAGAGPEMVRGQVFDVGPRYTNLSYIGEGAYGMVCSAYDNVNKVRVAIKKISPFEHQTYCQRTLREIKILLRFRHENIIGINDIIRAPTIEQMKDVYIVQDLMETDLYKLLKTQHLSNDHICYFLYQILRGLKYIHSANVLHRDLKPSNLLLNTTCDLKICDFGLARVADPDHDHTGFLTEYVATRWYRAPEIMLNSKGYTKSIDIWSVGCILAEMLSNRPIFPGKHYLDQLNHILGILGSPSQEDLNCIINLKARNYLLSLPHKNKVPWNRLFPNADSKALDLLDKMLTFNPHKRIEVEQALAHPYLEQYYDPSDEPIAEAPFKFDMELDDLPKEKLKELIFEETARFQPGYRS
Sequence of CHK2(I157T)(h) (O96017 whole entry I157T): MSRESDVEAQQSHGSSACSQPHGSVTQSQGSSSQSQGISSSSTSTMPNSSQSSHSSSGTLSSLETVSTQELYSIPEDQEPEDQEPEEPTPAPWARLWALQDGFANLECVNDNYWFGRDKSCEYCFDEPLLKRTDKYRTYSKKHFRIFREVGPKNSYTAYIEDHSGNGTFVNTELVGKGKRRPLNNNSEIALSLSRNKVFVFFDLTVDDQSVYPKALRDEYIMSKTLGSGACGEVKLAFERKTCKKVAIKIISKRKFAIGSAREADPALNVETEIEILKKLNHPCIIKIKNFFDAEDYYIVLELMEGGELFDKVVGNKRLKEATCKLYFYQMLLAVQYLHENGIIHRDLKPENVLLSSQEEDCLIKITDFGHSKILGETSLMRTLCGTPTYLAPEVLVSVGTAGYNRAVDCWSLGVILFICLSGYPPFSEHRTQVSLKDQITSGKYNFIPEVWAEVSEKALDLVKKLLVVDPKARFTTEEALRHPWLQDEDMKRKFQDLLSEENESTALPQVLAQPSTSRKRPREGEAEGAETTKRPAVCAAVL

Sequence	% activity [1]	% activity [2]	% activity [3]	% activity [4]	% activity [5]	% activity [6]	% activity [7]	% activity [8]	% activity [9]	% activity [10]
FAKLAARLYRKALARQLGVAA [MMI-0300]	43%	96%	126%	81%	122%	86%	127%	29%	98%	70%
HRRIKAWLKKIKALARQLGVAA [MMI-0500]	3%	95%	194%	7%	93%	87%	122%	9%	60%	30%
KAFAKLAARLYRKALARQLGVAA [MMI-0400]	41%	85%	143%	75%	100%	92%	129%	28%	93%	66%
YARAAARQARAKALNRQLGVA [MMI-0200]	85%	90%		98%	124%			60%		99%
